Primed or numbered codes have the meaning given here. Ends that are not written are not given here. FITC′ = fluorescein isothiocyanate
Biological target: T1, EpCAM (epithelial cell adhesion molecule) on the surface of HT29 colon cancer cells (UniProt P16422 24-314, limits assumed)
T1 construct: whole, on cells; HT29 is a human cell line
T1 sequence (looked up): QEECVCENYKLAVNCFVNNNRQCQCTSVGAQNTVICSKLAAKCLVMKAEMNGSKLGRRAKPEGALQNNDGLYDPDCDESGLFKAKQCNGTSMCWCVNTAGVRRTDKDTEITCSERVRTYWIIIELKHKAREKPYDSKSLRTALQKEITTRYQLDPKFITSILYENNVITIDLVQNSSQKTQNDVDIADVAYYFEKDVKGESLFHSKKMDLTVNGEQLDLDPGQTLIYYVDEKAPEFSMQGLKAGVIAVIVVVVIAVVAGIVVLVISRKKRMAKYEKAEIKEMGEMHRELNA
Assay: confocal fluorescence microscopy of HT29 spheroids with FITC-Ep114/PEG/gold nanoparticles (PEG ratios 100/1, 200/1, 300/1)
Experimental: A colon cancer cell line HT29 was used to conduct a cellular uptake test. First, by using 96 holes type culture plate for spheroids, EZ-Sphere™ (Asahi Glass Co., Ltd.), spheroid of HT29 cells was formed.
Specifically, HT29, 4×10⁵ cells were suspended in a culture medium in which 20 ng/ml of human EGF (manufactured by Miltenyi Biotec, K.K.), 20 ng/ml of human FGF-2 (manufactured by Miltenyi Biotec K.K.), 1/50 amount of B-27 supplement×50 (manufactured by GIBCO), and 1/100 amount of Penicillin-Streptomycin Solution×100 (manufactured by Wako Pure Chemical Industries, Ltd.) were added to 3 ml of D-MEM/F-12 medium (Dulbecco's Modified Eagle Medium: Nutrient Mixture F-12 1:1 Mixture, manufactured by GIBCO). The suspension was dispensed to each well of 200 μl, and was cultured in CO₂ incubator at 37° C. for 72 hours.
Then, a part of the spheroids (approximately 20 μl) and the gold particle-peptide complex were placed on a glass bottom dish (D110300, Matsunami Glass Ind., Ltd.), and irradiated laser of 488 nm with 40 magnification objective lens by using an inverted confocal laser microscope (FLUOVIEW FV1000IX81 type, manufactured by Olympus Corporation), and observed using a filter for Alexa488.

binding result: binds
B1: EpCAM-binding peptide Ep114 (FITC-labelled), bound to PEG-covered gold nanoparticles (peptide)
peptide: {FITC′}-KHLQCVRNICWSGGK
modifications: cysteine pairing not given here; also: bound to PEG-covered gold nanoparticles
notes: In the assay the peptide covered approx. 15 nm gold nanoparticles that were partially covered with mPEG-SH 5k (PEG:particle ratios 100/1, 200/1, 300/1; 2000 peptides per particle); also called EP114 peptide

— patent US20160258940A1 (IMRA AMERICA, published 2016)
